Reference: patent US20200325490A1 (AARHUS UNIVERSITET, published 2020)

Target: the molecule itself
Assay: Western blot with anti-His6 antibody: band of about 92 kDa against a theoretical mass of 47 kDa

B1: HvNEP-1 (Hordeum vulgare nepenthesin-1-type aspartic endoprotease), ΔHvNEP-1 with C-terminal His6 tag, expressed in Pichia pastoris KM71H (enzyme)
chain: DADTPKVAMASSGAGSSFRLAAHHDHALSRSDDGFLHVQSRLDNLLPSEANVTTLRPPVASPLDMAFSVVVGLGSGKGRHDYNLKLDASGSLTWVQCKPCNPKQPQRGPLFDPKASSTFQQVAGTSQICHPPYPMEPAGQQCAFHLSGMGGMSVHGYVAMENLTMGPEAMKEFVFGCSHSTGHFNSHGTFAGVAAMGKMPTSLVMQVAARGQTRFSYCLFSGGASRHGFLRFGADVPSRSGLRTTKILPALDAHESQYYVSLVGISLDAKRLTGVRPEMFARQRGGEGGCVVDPGTPLTVLVREAYRVVEDAVWSDLRRNKAERVQREGYGLCVRKTAEIKRHLQSLSLHFAEETARLVVKPEQLFVAVESRLHGAALCLAMRPGERTVIGALQQVDTRFVYDLKDAKLSFASEPCSQDTAGVDHHHHHH
notes: also called HvNEP-1 protease; truncated HvNEP-1
binding result: binds
